Measurements from patent US20190185537A1 (AstraZeneca / MedImmune, published 2019).
Numbered stars: 1 amine (or outer) side, 2 acyl side, 3 side chain; on linkers, the order of the positions; unused ones are H or OH. Side chains are listed from the residue outwards. Ends that are not written are not given here. * marks the point of attachment. γGlu = O=C(O)[C@H](CCC(=O)[*:2])N[*:1]; Palmitoyl = CCCCCCCCCCCCCCCC(=O)*

Tests used:
Test in all cases: cell-based or functional assay
human GLP-1 receptor = human GLP-1 receptor (human, UniProt P43220 24-463)
[1] = molecular target: T1, human glucose-dependent insulinotropic peptide (gastric inhibitory polypeptide) receptor (human) (UniProt P48546)
T1 sequence (looked up): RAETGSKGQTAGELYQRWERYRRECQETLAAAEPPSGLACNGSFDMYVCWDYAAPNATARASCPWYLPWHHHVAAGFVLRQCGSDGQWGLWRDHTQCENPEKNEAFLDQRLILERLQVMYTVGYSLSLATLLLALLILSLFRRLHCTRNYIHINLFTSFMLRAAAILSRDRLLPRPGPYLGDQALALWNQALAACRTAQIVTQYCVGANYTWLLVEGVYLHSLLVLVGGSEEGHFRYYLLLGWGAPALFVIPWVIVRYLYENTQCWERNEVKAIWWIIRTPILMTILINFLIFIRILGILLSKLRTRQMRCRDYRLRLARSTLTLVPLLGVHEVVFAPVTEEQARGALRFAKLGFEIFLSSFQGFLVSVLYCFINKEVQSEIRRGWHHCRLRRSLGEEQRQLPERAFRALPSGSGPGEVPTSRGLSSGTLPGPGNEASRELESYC

human glucagon receptor = human glucagon receptor (human, UniProt P47871 26-477)
human glucagon receptor, sequence (P47871 26-477): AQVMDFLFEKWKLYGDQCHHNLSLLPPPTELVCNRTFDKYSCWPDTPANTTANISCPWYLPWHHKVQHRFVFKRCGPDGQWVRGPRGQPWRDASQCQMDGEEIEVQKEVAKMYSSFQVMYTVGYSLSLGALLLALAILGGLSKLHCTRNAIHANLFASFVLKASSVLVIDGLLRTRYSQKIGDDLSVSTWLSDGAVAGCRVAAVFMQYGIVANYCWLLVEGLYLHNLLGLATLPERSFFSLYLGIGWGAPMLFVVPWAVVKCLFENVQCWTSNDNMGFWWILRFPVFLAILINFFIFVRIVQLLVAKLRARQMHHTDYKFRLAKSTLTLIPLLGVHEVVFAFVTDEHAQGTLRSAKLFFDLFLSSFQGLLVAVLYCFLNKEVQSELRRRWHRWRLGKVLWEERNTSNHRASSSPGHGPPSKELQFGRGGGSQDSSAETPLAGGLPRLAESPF

human GLP-1 receptor, sequence (P43220 24-463): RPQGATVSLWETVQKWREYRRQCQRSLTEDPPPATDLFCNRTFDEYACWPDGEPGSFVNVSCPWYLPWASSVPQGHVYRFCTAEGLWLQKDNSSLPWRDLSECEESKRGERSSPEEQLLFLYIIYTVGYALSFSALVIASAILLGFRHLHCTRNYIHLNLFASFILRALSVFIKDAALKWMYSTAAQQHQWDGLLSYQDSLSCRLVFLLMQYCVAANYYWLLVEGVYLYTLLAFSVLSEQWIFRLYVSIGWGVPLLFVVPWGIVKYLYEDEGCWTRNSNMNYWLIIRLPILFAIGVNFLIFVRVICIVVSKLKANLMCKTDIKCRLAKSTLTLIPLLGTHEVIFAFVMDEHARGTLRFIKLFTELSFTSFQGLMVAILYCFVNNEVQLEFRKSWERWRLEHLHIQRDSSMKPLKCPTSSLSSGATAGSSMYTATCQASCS

Binder	cAMP EC50 (assay 1) (human GLP-1 receptor) [nM]	cAMP EC50 (assay 1) [1] [nM]	cAMP EC50 (assay 1) (human glucagon receptor) [nM]
HSQGTFTSDK([γGlu-Palmitoyl])SKYLDSRRAQDFVQWLEAGG-NH2 (N-terminus assumed; SMILES CCCCCCCCCCCCCCCC(=O)N[C@@H](CCC(=O)NCCCC[C@H](NC(=O)[C@H](CC(=O)O)NC(=O)[C@H](CO)NC(=O)[C@@H](NC(=O)[C@H](Cc1ccccc1)NC(=O)[C@@H](NC(=O)CNC(=O)[C@H](CCC(N)=O)NC(=O)[C@H](CO)NC(=O)[C@@H](N)Cc1c[nH]cn1)[C@@H](C)O)[C@@H](C)O)C(=O)N[C@@H](CO)C(=O)N[C@@H](CCCCN)C(=O)N[C@@H](Cc1ccc(O)cc1)C(=O)N[C@@H](CC(C)C)C(=O)N[C@@H](CC(=O)O)C(=O)N[C@@H](CO)C(=O)N[C@@H](CCCNC(=N)N)C(=O)N[C@@H](CCCNC(=N)N)C(=O)N[C@@H](C)C(=O)N[C@@H](CCC(N)=O)C(=O)N[C@@H](CC(=O)O)C(=O)N[C@@H](Cc1ccccc1)C(=O)N[C@H](C(=O)N[C@@H](CCC(N)=O)C(=O)N[C@@H](Cc1c[nH]c2ccccc12)C(=O)N[C@@H](CC(C)C)C(=O)N[C@@H](CCC(=O)O)C(=O)N[C@@H](C)C(=O)NCC(=O)NCC(N)=O)C(C)C)C(=O)O) [g717]	0.00577	1.48	0.000455
HSQGTFTSDYSKYK([γGlu-Palmitoyl])DSRRARDFVEWLEAGG-NH2 (N-terminus assumed; SMILES CCCCCCCCCCCCCCCC(=O)N[C@@H](CCC(=O)NCCCC[C@H](NC(=O)[C@H](Cc1ccc(O)cc1)NC(=O)[C@H](CCCCN)NC(=O)[C@H](CO)NC(=O)[C@H](Cc1ccc(O)cc1)NC(=O)[C@H](CC(=O)O)NC(=O)[C@H](CO)NC(=O)[C@@H](NC(=O)[C@H](Cc1ccccc1)NC(=O)[C@@H](NC(=O)CNC(=O)[C@H](CCC(N)=O)NC(=O)[C@H](CO)NC(=O)[C@@H](N)Cc1c[nH]cn1)[C@@H](C)O)[C@@H](C)O)C(=O)N[C@@H](CC(=O)O)C(=O)N[C@@H](CO)C(=O)N[C@@H](CCCNC(=N)N)C(=O)N[C@@H](CCCNC(=N)N)C(=O)N[C@@H](C)C(=O)N[C@@H](CCCNC(=N)N)C(=O)N[C@@H](CC(=O)O)C(=O)N[C@@H](Cc1ccccc1)C(=O)N[C@H](C(=O)N[C@@H](CCC(=O)O)C(=O)N[C@@H](Cc1c[nH]c2ccccc12)C(=O)N[C@@H](CC(C)C)C(=O)N[C@@H](CCC(=O)O)C(=O)N[C@@H](C)C(=O)NCC(=O)NCC(N)=O)C(C)C)C(=O)O) [g824]	0.0471	57.4	0.00105
HSQGTFTSDYSRYLDSK([γGlu-Palmitoyl])RARDFVEWLVAGG-NH2 (N-terminus assumed; SMILES CCCCCCCCCCCCCCCC(=O)N[C@@H](CCC(=O)NCCCC[C@H](NC(=O)[C@H](CO)NC(=O)[C@H](CC(=O)O)NC(=O)[C@H](CC(C)C)NC(=O)[C@H](Cc1ccc(O)cc1)NC(=O)[C@H](CCCNC(=N)N)NC(=O)[C@H](CO)NC(=O)[C@H](Cc1ccc(O)cc1)NC(=O)[C@H](CC(=O)O)NC(=O)[C@H](CO)NC(=O)[C@@H](NC(=O)[C@H](Cc1ccccc1)NC(=O)[C@@H](NC(=O)CNC(=O)[C@H](CCC(N)=O)NC(=O)[C@H](CO)NC(=O)[C@@H](N)Cc1c[nH]cn1)[C@@H](C)O)[C@@H](C)O)C(=O)N[C@@H](CCCNC(=N)N)C(=O)N[C@@H](C)C(=O)N[C@@H](CCCNC(=N)N)C(=O)N[C@@H](CC(=O)O)C(=O)N[C@@H](Cc1ccccc1)C(=O)N[C@H](C(=O)N[C@@H](CCC(=O)O)C(=O)N[C@@H](Cc1c[nH]c2ccccc12)C(=O)N[C@@H](CC(C)C)C(=O)N[C@H](C(=O)N[C@@H](C)C(=O)NCC(=O)NCC(N)=O)C(C)C)C(C)C)C(=O)O) [g823]	0.0973	84.2	0.00948
HSQGTFTSDYSKYLDSK([γGlu-Palmitoyl])RARDFVAWLVAGG-NH2 (N-terminus assumed; SMILES CCCCCCCCCCCCCCCC(=O)N[C@@H](CCC(=O)NCCCC[C@H](NC(=O)[C@H](CO)NC(=O)[C@H](CC(=O)O)NC(=O)[C@H](CC(C)C)NC(=O)[C@H](Cc1ccc(O)cc1)NC(=O)[C@H](CCCCN)NC(=O)[C@H](CO)NC(=O)[C@H](Cc1ccc(O)cc1)NC(=O)[C@H](CC(=O)O)NC(=O)[C@H](CO)NC(=O)[C@@H](NC(=O)[C@H](Cc1ccccc1)NC(=O)[C@@H](NC(=O)CNC(=O)[C@H](CCC(N)=O)NC(=O)[C@H](CO)NC(=O)[C@@H](N)Cc1c[nH]cn1)[C@@H](C)O)[C@@H](C)O)C(=O)N[C@@H](CCCNC(=N)N)C(=O)N[C@@H](C)C(=O)N[C@@H](CCCNC(=N)N)C(=O)N[C@@H](CC(=O)O)C(=O)N[C@@H](Cc1ccccc1)C(=O)N[C@H](C(=O)N[C@@H](C)C(=O)N[C@@H](Cc1c[nH]c2ccccc12)C(=O)N[C@@H](CC(C)C)C(=O)N[C@H](C(=O)N[C@@H](C)C(=O)NCC(=O)NCC(N)=O)C(C)C)C(C)C)C(=O)O) [g867]	0.0448	41.7	0.00704
HSQGTFTSDYSKYK([γGlu-Palmitoyl])DSRRARDFVAWLEAGG-NH2 (N-terminus assumed; SMILES CCCCCCCCCCCCCCCC(=O)N[C@@H](CCC(=O)NCCCC[C@H](NC(=O)[C@H](Cc1ccc(O)cc1)NC(=O)[C@H](CCCCN)NC(=O)[C@H](CO)NC(=O)[C@H](Cc1ccc(O)cc1)NC(=O)[C@H](CC(=O)O)NC(=O)[C@H](CO)NC(=O)[C@@H](NC(=O)[C@H](Cc1ccccc1)NC(=O)[C@@H](NC(=O)CNC(=O)[C@H](CCC(N)=O)NC(=O)[C@H](CO)NC(=O)[C@@H](N)Cc1c[nH]cn1)[C@@H](C)O)[C@@H](C)O)C(=O)N[C@@H](CC(=O)O)C(=O)N[C@@H](CO)C(=O)N[C@@H](CCCNC(=N)N)C(=O)N[C@@H](CCCNC(=N)N)C(=O)N[C@@H](C)C(=O)N[C@@H](CCCNC(=N)N)C(=O)N[C@@H](CC(=O)O)C(=O)N[C@@H](Cc1ccccc1)C(=O)N[C@H](C(=O)N[C@@H](C)C(=O)N[C@@H](Cc1c[nH]c2ccccc12)C(=O)N[C@@H](CC(C)C)C(=O)N[C@@H](CCC(=O)O)C(=O)N[C@@H](C)C(=O)NCC(=O)NCC(N)=O)C(C)C)C(=O)O) [g780]	0.012	64	0.000792
HSQGTFTSDYSKYK([γGlu-Palmitoyl])DSRRAQDFVQWLEAGG-NH2 (N-terminus assumed; SMILES CCCCCCCCCCCCCCCC(=O)N[C@@H](CCC(=O)NCCCC[C@H](NC(=O)[C@H](Cc1ccc(O)cc1)NC(=O)[C@H](CCCCN)NC(=O)[C@H](CO)NC(=O)[C@H](Cc1ccc(O)cc1)NC(=O)[C@H](CC(=O)O)NC(=O)[C@H](CO)NC(=O)[C@@H](NC(=O)[C@H](Cc1ccccc1)NC(=O)[C@@H](NC(=O)CNC(=O)[C@H](CCC(N)=O)NC(=O)[C@H](CO)NC(=O)[C@@H](N)Cc1c[nH]cn1)[C@@H](C)O)[C@@H](C)O)C(=O)N[C@@H](CC(=O)O)C(=O)N[C@@H](CO)C(=O)N[C@@H](CCCNC(=N)N)C(=O)N[C@@H](CCCNC(=N)N)C(=O)N[C@@H](C)C(=O)N[C@@H](CCC(N)=O)C(=O)N[C@@H](CC(=O)O)C(=O)N[C@@H](Cc1ccccc1)C(=O)N[C@H](C(=O)N[C@@H](CCC(N)=O)C(=O)N[C@@H](Cc1c[nH]c2ccccc12)C(=O)N[C@@H](CC(C)C)C(=O)N[C@@H](CCC(=O)O)C(=O)N[C@@H](C)C(=O)NCC(=O)NCC(N)=O)C(C)C)C(=O)O) [g601]	0.0398	74.1	0.000493
HSQGTFTSDYSKYLDSERARDFVAWLEAGG-NH2 [g840]	0.145	102	0.0053
HSQGTFTSDK([γGlu-Palmitoyl])SKYLDSERARDFVAWLEAGG-NH2 (N-terminus assumed; SMILES CCCCCCCCCCCCCCCC(=O)N[C@@H](CCC(=O)NCCCC[C@H](NC(=O)[C@H](CC(=O)O)NC(=O)[C@H](CO)NC(=O)[C@@H](NC(=O)[C@H](Cc1ccccc1)NC(=O)[C@@H](NC(=O)CNC(=O)[C@H](CCC(N)=O)NC(=O)[C@H](CO)NC(=O)[C@@H](N)Cc1c[nH]cn1)[C@@H](C)O)[C@@H](C)O)C(=O)N[C@@H](CO)C(=O)N[C@@H](CCCCN)C(=O)N[C@@H](Cc1ccc(O)cc1)C(=O)N[C@@H](CC(C)C)C(=O)N[C@@H](CC(=O)O)C(=O)N[C@@H](CO)C(=O)N[C@@H](CCC(=O)O)C(=O)N[C@@H](CCCNC(=N)N)C(=O)N[C@@H](C)C(=O)N[C@@H](CCCNC(=N)N)C(=O)N[C@@H](CC(=O)O)C(=O)N[C@@H](Cc1ccccc1)C(=O)N[C@H](C(=O)N[C@@H](C)C(=O)N[C@@H](Cc1c[nH]c2ccccc12)C(=O)N[C@@H](CC(C)C)C(=O)N[C@@H](CCC(=O)O)C(=O)N[C@@H](C)C(=O)NCC(=O)NCC(N)=O)C(C)C)C(=O)O) [g798]	0.00907	1.51	0.00051
